# Source: the supplement of paper PMC12042874
# ± gives the uncertainty stated by the source.
# Assay: amyloid nucleation score (Sup35N fusion, yeast selection) (log enrichment); library NNK2; higher = more nucleation; inactive = no reads after selection
# Outline: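 Plasmid inserts were Illumina-sequenced at input and output from psi-negative yeast expressing Sup35N fused to peptides of 20 random codons. The yeast were induced with 100 μM copper sulfate for 24 hours and grown 7 days at 30°C on medium lacking adenine and uracil, and sequences with under 100 input reads were excluded. Nucleation score is the DiMSum log enrichment of output over input reads, centred on the mode score of non-aggregating sequences.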
row,Substance,amyloid nucleation score
1,GSLTDLFGWDESCFRCTALC,3.79 ± 0.092
2,NFTSFAYFELEDALWSWRRL,1.16 ± 0.35
3,VLLEIY,-0.384 ± 0.65
4,LGFLAEELCMSMMGIVDVPE,inactive
5,IGCSWSKQELVISNLLVFLF,-1.52 ± 0.62
6,LSWDYLSWTREI,-0.333 ± 0.24
7,LMLRGLEEARAPRCESWPSW,1.21 ± 0.34
8,WDTLARYSGIQLVFE,-0.974 ± 0.55
9,SHFRLCGGVWSSGLMCHGCF,1.61 ± 0.55
10,LRKVLW,-0.657 ± 0.79
11,GFALYFCSEFMVSVCRCKHT,9.613 ± 0.065
12,GMLMIVGARSRDVPYYGRCD,0.004 ± 1.1
13,YVEVLSKVAWASDCSRIEYA,-0.342 ± 1.1
14,DDRELL,-0.32 ± 0.63
15,SFYWYRCVDIADSTSKYDGF,inactive
16,YNQVYES,2.84 ± 0.054
17,YLIRVHICGCKYVERLFHSV,inactive
18,LVSMAIECHLLYLLE,0.931 ± 0.47
19,SMNSLSIVYLDYASGAWMDL,-0.127 ± 0.49
20,CFPSILSRFINLRCPGRSSY,inactive
21,AVCVENLCPWV,1.82 ± 0.11
22,TSGLAGGDWNWAS,0.314 ± 0.64
23,GYAYLSLHKA,0.342 ± 0.2
24,VYYASDNWYLAYRWEGRRFN,0.821 ± 0.27
25,FNKNDNYYSAR,-0.753 ± 0.78

row,Substance,amyloid nucleation score
1,LSLKVKYFQKDTRVGNGEHK,2.15 ± 0.076
2,RKCFDRRDYIPKIGQIRMSC,-0.48 ± 0.39
3,VYVFYVSIKVAVFTLTM,3.92 ± 0.041
4,NLVFKPFCEPSVVSV,0.099 ± 0.62
5,RRRHLGFGKSVEVE,-0.549 ± 0.34
6,RCSGVP,0.908 ± 0.23
7,VLRYLDFDYRLELFIYVMHR,-1.48 ± 1.1
8,QMTLVHK,1.67 ± 0.39
9,FASFVSIGRVVLLYSPSCYQ,5.71 ± 0.059
10,GCVLAQLSSVGSGVLML,3.14 ± 0.16
11,TRGNM,0.63 ± 0.39
12,FSLHKCNVRLGISNGT,-0.276 ± 0.48
13,NGPVQIASGGRRVPLLWEVL,0.098 ± 0.79
14,GHVDCWYGRVTALGQAKYE,0.344 ± 0.26
15,IWFGVYIYFVDFRVILNRLL,inactive
16,LHSVMMLGGRIRPHPQVHSL,0.471 ± 0.26
17,LNSRS,-0.436 ± 0.76
18,VLSYMFVYETMSEIFTFLVG,-0.586 ± 0.49
19,FHKKAMIRSFCPKEIDLGSM,inactive
20,SPGYTMKGFRWWLLSILGAR,inactive
21,EWCQKGSAEIRASRCQ,0.58 ± 0.18
22,SFRKILESWKDAYLYDPALT,0.113 ± 1.1
23,VCQVFVNGVSSDRVAVLVVI,5.25 ± 0.059
24,LAFMRLPAVVLSSTLSFMKS,0.789 ± 0.66
25,RLSYWFIKELGNTSDYDRAP,-0.541 ± 0.76

row,Substance,amyloid nucleation score
1,NNVANW,0.569 ± 0.48
2,SMYLCDK,-0.621 ± 0.48
3,FLFNVSGLYIGWSLVPTNLD,-0.33 ± 0.76
4,VVRSRW,0.372 ± 0.42
5,EVAEQH,0.426 ± 0.16
6,TTSGNTIHIYVIQLSIQKFS,5.39 ± 0.06
7,VNIVSIVYKGDNN,7.72 ± 0.075
8,GTVTLV,3.99 ± 0.11
9,IVDISCI,-0.541 ± 1
10,VKDDTSHPYRGFYYRVIRRN,1.08 ± 0.16
11,KAYLCSFMMCFLL,6.803 ± 0.056
12,GQTIL,inactive
13,VIKKQCCHTYSVLTFRILNC,0.151 ± 0.63
14,VLLSITSRRVMPTSKI,0.594 ± 0.81
15,SWMNYRCRQDMSCCK,0.908 ± 0.47
16,GFLELCMFKVFFQRCARTIS,-1.04 ± 1.1
17,SRVSLYQML,-1.01 ± 0.34
18,YVFYLVR,1.03 ± 0.24
19,STLKPVNPGKVRH,0.445 ± 0.57
20,FCHCFRGYARDHHRMTQLGN,-0.674 ± 0.76
21,NYSYMSMHTSCLSKTPSSRA,-1.42 ± 1.1
22,DSSSCYMYLCTGNYPDNFNF,4.5 ± 0.084
23,SLQVDRNWGGS,0.105 ± 0.55
24,WWFTAIGCSVGRLGSFNR,2.06 ± 0.16
25,RRTSYLCWFAGYFGLI,-0.295 ± 0.45

row,Substance,amyloid nucleation score
1,ILADINL,inactive
2,HYLNIRQDPY,2.4 ± 0.21
3,AQGSRDSNRRVEASACY,-0.09 ± 0.63
4,VMCTC,0.71 ± 0.48
5,LWNSIDNS,inactive
6,FMSICR,1.47 ± 0.4
7,TVRANLKTRCMSRTTNQEHT,1.85 ± 0.15
8,LIEVQGSFYIVSALIGYRCG,0.414 ± 0.21
9,FSLQCPFSERKIYRRLCSPS,inactive
10,YMRSWEVLNMCGVSWLCIFA,7.419 ± 0.064
11,SHLPVWTSKNARSRCDP,0.602 ± 0.25
12,VVLRHHLFSSALYICMRGIQ,inactive
13,DYVRCVDLSN,-0.863 ± 0.63
14,CFLTTYNRNYNLMRVFSIFR,1.43 ± 0.21
15,LEGMFLPGFFSCVRFLWL,-1.51 ± 0.78
16,SRHRLAMRTAGTRVVSCWG,0.285 ± 0.3
17,RGIFSSVWLLRSIMFGVGSP,-0.016 ± 0.23
18,VTRLFGIREFRG,3.65 ± 0.053
19,MSPLH,-0.181 ± 0.39
20,VFQQFNS,0.244 ± 0.62
21,PNACPFWCLGRV,-0.439 ± 0.63
22,ILSARRCFAQMVFVLYQNLV,-0.171 ± 0.33
23,IKVDSAWETIAVVM,0.246 ± 0.33
24,HAYSWNNRPVGVVRSRSRLF,-0.597 ± 0.34
25,FLLWIHF,1.04 ± 0.44

row,Substance,amyloid nucleation score
1,YPEPKQWVSVSALHLVRGLR,0.995 ± 0.2
2,KSLNDDVKLKNKGSSPSAPW,inactive
3,GFVMSYGRGLLS,0.29 ± 0.42
4,LSSLTLSMVA,0.561 ± 0.62
5,FHAYTGCVWVTCQYGWRRDT,1.9 ± 0.15
6,ICIFHDWVIIICCSIRMRCL,-0.823 ± 0.63
7,RLLFCGWLTN,-1 ± 1
8,LELLSLIFSFG,2.13 ± 0.18
9,VGCFTRSIGHAM,0.257 ± 0.23
10,LNDWNFLVMVHISIVIRILF,inactive
11,VNHLYYCFCTLITHEVRVVS,5.363 ± 0.034
12,SHMIRYRSVDRVHGLFHPQS,-0.232 ± 0.37
13,PEPFS,inactive
14,VQSGWTSKGVLPQVANRTLR,0.827 ± 0.44
15,TYPRDYVVRSEI,0.74 ± 0.43
16,ALNSPFMLQFLDWL,0.11 ± 0.76
17,WGDRLSVKFMCVDALGRVNL,0.019 ± 0.56
18,CMMLAPLCLSLL,-0.018 ± 1.1
19,NIFYRLNGFFQCPRSGLKGC,inactive
20,DVVMG,0.701 ± 0.51
21,LDSGHNGDVNGG,-0.45 ± 0.64
22,PTGCLMICNSFVIDSVRRRP,7.812 ± 0.032
23,RSMDPCRLLSELIRRT,0.938 ± 0.32
24,VCHAGTWLQSGRTRYSIVRN,3.51 ± 0.12
25,AFLNFTDRKSQWKVMVIEFL,3.3 ± 0.096

row,Substance,amyloid nucleation score
1,DYTNSTAEGFTF,inactive
2,TYKTGDACVLVLPPHMADPR,-0.446 ± 1.1
3,YIFGSCGVYLFPPPAKF,6.88 ± 0.078
4,ISGYRWNHVSTFVGIYRVHS,0.98 ± 0.53
5,EYYINFVNNTFCVDSLRSLD,5.068 ± 0.035
6,NKSLFMKFCVSLFRLGSYVT,-0.618 ± 0.48
7,TLRHSKFTSIPVIETGLCGV,-1.44 ± 1.1
8,IKNLRNQGK,-0.745 ± 0.61
9,IFISRVNDFTVMGGDWSFRG,3.64 ± 0.083
10,GLGYLMINYMRISWWAMYCA,0.235 ± 0.61
11,NVQRI,-0.399 ± 0.55
12,YSYEHTRWTSLGGWHLR,4.66 ± 0.069
13,YKLFWKWGFSGITDDSTLMR,inactive
14,FTDRDLGNLTYDDRFDICNY,-1.75 ± 0.76
15,SNEPIGTASLHDYVGPRVST,-0.332 ± 0.44
16,SVLLRDMGILYVMRNYYWPL,-0.033 ± 0.76
17,FIIIVLNNSVFRMKCALASI,-0.202 ± 1.1
18,SIRLYHYKFALRERKV,5.345 ± 0.053
19,EKIFPLMGVKN,inactive
20,GCRAVRTWEPIGVAGEYFGS,6.232 ± 0.037
21,SSTPMCVPMYCS,inactive
22,HAYFFLRDRVRCSIFVIVTT,-0.453 ± 0.78
23,DHRVLQWLTAPY,0.353 ± 0.36
24,IYCCISEWSNHTWV,6.175 ± 0.036
25,VSSRYCTCRLCHPWYSFWFS,-0.625 ± 0.54

row,Substance,amyloid nucleation score
1,CEVSGYARWLGQHYWSAVRA,1.69 ± 0.32
2,GVHMSDRVNTMSD,-0.129 ± 1.1
3,GTVNKSMVTSLTVPLIVC,0.442 ± 0.28
4,SHGVLRMAKIRSWGFDVTVM,0.02 ± 0.74
5,CIAYRDSTAYHNMTRGTAMV,3.72 ± 0.043
6,EPDELPYLLKASLMSLGHGP,4.64 ± 0.073
7,LDSVQWNGCMIRYSYLGMGW,-0.138 ± 0.3
8,RALVD,-0.548 ± 1.1
9,GMIRLLGLFIKKRWRSNTCL,-0.238 ± 0.5
10,KSFSCVCPWFGH,10.32 ± 0.031
11,TRNWRGYVCYSEVIIVVKQE,-0.839 ± 0.78
12,FYCVNV,-0.383 ± 0.64
13,AEAISQLEAMR,1.13 ± 0.39
14,ECLKYRYSFFNWTSTSVFHA,-0.435 ± 0.79
15,TRIVS,-0.415 ± 0.25
16,SMYSLTVVNLRVRFLVVWGW,0.615 ± 0.5
17,MFCRTRALSRTGPTGQLLRV,3.56 ± 0.13
18,DRAYDVCGRSRRWYQKKLGM,-0.667 ± 0.49
19,KLRPNLCKHYMTFMETSS,0.175 ± 0.53
20,FRVVRFVQTGSTFSIARFIK,-0.83 ± 0.39
21,TTHVNLIKRRGYFRRCVFQL,0.087 ± 0.79
22,MDTVMRLYVCVCCRSFLRIG,1.62 ± 0.35
23,EGRHNV,inactive
24,YFPPGDA,-0.47 ± 0.39
25,PITLTRASALLCKYYAFWTF,1.14 ± 0.37
